Measured values as given in patent US12577571B2, “Mutant DNase1L3 with improved serum half-life” (Texas Tech University System, priority 2019, dated 2026).

B1: Dnase1: DNase I protein of the background art; poorly digests chromatin DNA (protein, UniProt P24855 23-282, looked up)
Deoxyribonuclease-1: LKIAAFNIQTFGETKMSNATLVSYIVQILSRYDIALVQEVRDSHLTAVGKLLDNLNQDAPDTYHYVVSEPLGRNSYKERYLFVYRPDQVSAVDSYYYDDGCEPCGNDTFNREPAIVRFFSRFTEVREFAIVPLHAAPGDAVAEIDALYDVYLDVQEKWGLEDVMLMGDFNAGCSYVRPSQWSSIRLWTSPTFQWLIPDSADTTATPTHCAYDRIVVAGMLLRGAVVPDSALPFNFQAAYGLSDQLAQAISDHYPVEVMLK
B2: PEGylated Dnase1L3: Purified Dnase1L3 conjugated to PEG (PEG-maleimide); band shifts from 36 kDa to 41 kDa (conjugate, UniProt Q13609 21-305, looked up)
Deoxyribonuclease gamma: MRICSFNVRSFGESKQEDKNAMDVIVKVIKRCDIILVMEIKDSNNRICPILMEKLNRNSRRGITYNYVISSRLGRNTYKEQYAFLYKEKLVSVKRSYHYHDYQDGDADVFSREPFVVWFQSPHTAVKDFVIIPLHTTPETSVKEIDELVEVYTDVKHRWKAENFIFMGDFNAGCSYVPKKAWKNIRLRTDPRFVWLIGDQEDTTVKKSTNCAYDRIVLRGQEIVSSVVPKSNSVFDFQKAYKLTEEEALDVSDHFPVEFKLQSSRAFTNSKKSVTLRKKTKSKRS
modifications: PEG-maleimide conjugate
notes: Purified Dnase1L3 conjugated to PEG (PEG-maleimide); band shifts from 36 kDa to 41 kDa

What was measured:
[1] = test system: DNA present as chromatin or apoptotic bodies; conditions: background, Sisirak et al 2016, Napirei et al 2009, Wilber et al 2002; cited from earlier work
plasmid DNA = assay: Plasmid DNA degradation by Dnase1L3 (agarose gel); type: biochemical; conditions: increasing dilutions with 200 ng plasmid DNA, 30 min at 37° C., 200 mM Tris pH 7.4, 50 mM MgCl2, 20 mM CaCl2; 1% agarose gel
Description: FIGS. 1A to 1E show the results from the modified Dnase1L3 of the present invention. […] (FIG. 1A) Dnase1L3 was affinity purified with Nickel NTA agarose, then cleaved with Tobacco Etch Virus protease TEV protease. Cleaved Dnase1L3 was further purified by anion exchange and then by size exclusion chromatography. Fractions from the final size exclusion purification were resolved by SDS-PAGE and Coomassie stained. Fractions 7-9 show purified Dnase1L3 at the expected 36 kDa size. Molecular weight in kDa is shown. (FIG. 1B) The indicated amounts of purified Dnase1L3 were resolved by SDS-PAGE, transferred to nitrocellulose and probed with anti-Dnase1L3 primary antibody, anti-rabbit HRP secondary antibody and developed with enhanced chemiluminescence. (FIG. 1C) Recombinant, […] mM Tris pH 7.4, 50 mM MgCl2, 20 mM CaCl2 with or without 100 μM Dnase1L3 inhibitors fmoc-D-cyclohexylalanine (FCA) or Pontacyl Violet 6R (PV). Remaining plasmid DNA resolved on a 1% agarose gel. # indicates non-degraded DNA (i.e. supercoiled, nicked and linear DNA). The absence of DNA indicates degradation. (FIG. 1D) Purified Dnase1L3 was conjugated to PEG. Unconjugated Dnase1L3, PEGylated Dnase1L3 (PEG-D1L3), or free PEG were resolved by SDS-PAGE and visualized with Coomassie Blue. The 36 kDa band has increased in size to 41 kDa, indicating successful PEGylation. Molecular weight in kDa is shown. […]

Molecule | digestion of DNA present as chromatin or apoptotic bodies [1] | endonuclease activity (degradation of plasmid DNA) (plasmid DNA)
B1 | poorly digests | 
B2 |  | potent endonuclease
